Measurements taken from US20210301029A1 (LYVGEN BIOPHARMA, published 2021).

T1: human FcγRIIB (human, UniProt P31994 43-310)
T1 construct: whole, on cells; also called CD32b; FcγR2B
T1 sequence (looked up): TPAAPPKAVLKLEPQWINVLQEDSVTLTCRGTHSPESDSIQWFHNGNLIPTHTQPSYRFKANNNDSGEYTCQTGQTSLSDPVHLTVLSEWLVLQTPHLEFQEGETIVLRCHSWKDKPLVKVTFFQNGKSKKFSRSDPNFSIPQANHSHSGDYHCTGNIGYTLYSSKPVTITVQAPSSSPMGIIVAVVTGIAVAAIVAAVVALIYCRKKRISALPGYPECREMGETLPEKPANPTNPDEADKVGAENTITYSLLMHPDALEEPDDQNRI

B1: 383-huIgG2m1 (antibody)
heavy: not shown
light: DIQMTQSPSSVSASVGDRVTITCRASQGIYSWLAWYQQKPGKAPNLLIYTASTLQSGVPSRFSGSGSGTDFTLTISSLQPEDFATYYCQQANIFPLTFGGGTKVEIKRTVAAPSVFIFPPSDEQLKSGTASVVCLLNNFYPREAKVQWKVDNALQSGNSQESVTEQDSKDSTYSLSSTLTLSKADYEKHKVYACEVTHQGLSSPVTKSFNRGEC
B2: 383-huIgG2m44 (antibody)
heavy: not shown
light: B1 light
B3: 383-huIgG2m20 (antibody)
heavy: not shown
light: B1 light
notes: also called 383-G2m20; 383-IghuG2m20
B4: 383-huIgG4m20 (antibody)
heavy: not shown
light: B1 light
B5: 383-huIgG4SP (antibody)
heavy chain: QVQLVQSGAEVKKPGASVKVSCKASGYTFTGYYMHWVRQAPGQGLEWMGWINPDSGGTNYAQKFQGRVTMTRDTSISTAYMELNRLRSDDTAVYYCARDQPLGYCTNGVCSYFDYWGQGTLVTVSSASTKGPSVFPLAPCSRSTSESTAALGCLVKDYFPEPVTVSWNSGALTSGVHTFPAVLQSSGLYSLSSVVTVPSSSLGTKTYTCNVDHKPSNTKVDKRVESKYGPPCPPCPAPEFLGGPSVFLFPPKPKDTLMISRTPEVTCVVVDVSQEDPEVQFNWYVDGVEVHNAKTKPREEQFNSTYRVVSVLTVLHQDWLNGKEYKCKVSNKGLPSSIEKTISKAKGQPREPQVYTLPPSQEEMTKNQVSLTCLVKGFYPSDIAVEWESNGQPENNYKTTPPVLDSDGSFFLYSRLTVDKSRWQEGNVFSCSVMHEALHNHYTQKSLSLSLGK
light chain: B1 light
notes: anti-CD40 antibody 383 on a human IgG4 S228P constant region
B6: 383-huIgG4m42 (antibody)
heavy: not shown
light: B1 light
B7: 383-huIgG1 N297A (antibody)
heavy: not shown
light: B1 light
notes: the entry already carries the change
B8: 383-huIgG4m41 (antibody)
heavy: not shown
light: B1 light
B9: 383-huIgG1m48 (antibody)
heavy: not shown
light: B1 light
B10: 383-huIgG2mAA (antibody)
heavy: not shown
light: B1 light
B11: 383-huIgG2m40 (antibody)
heavy: not shown
light: B1 light
notes: also called 383-G2m40; 383-IghuG2m40
B12: 383-huIgG1m40 (antibody)
heavy: not shown
light: B1 light
B13: 383-huIgG1mAA (antibody)
heavy: not shown
light: B1 light
B14: 383-huIgG2G4 (antibody)
heavy: not shown
light: B1 light

Each binder was assayed against T2, human FcγRI (human, UniProt P12314 16-374) (assay: FACS on CHO cells expressing human FcγRI (MFI)).
T2 construct: whole, on cells; also called CD64
Procedure: (§1) For FACS analysis of the IgG mutants' binding to different FcγRs, FcγR overexpressing CHO cells were harvested using trypsin-EDTA and were suspended in cold staining buffer (3% BSA in PBS). Test IgG mutants, which were diluted in staining buffer, were added into the cells. The mixture was incubated at 4° C. for 2 hours, and then washed twice with cold staining buffer and re-suspended in PE-labeled anti-human IgG followed by incubation at 4° C. for 2 hours. The mixture was washed twice with staining buffer and re-suspended in 2% PFA in PBS for FACS.

T2 sequence (P12314 16-374): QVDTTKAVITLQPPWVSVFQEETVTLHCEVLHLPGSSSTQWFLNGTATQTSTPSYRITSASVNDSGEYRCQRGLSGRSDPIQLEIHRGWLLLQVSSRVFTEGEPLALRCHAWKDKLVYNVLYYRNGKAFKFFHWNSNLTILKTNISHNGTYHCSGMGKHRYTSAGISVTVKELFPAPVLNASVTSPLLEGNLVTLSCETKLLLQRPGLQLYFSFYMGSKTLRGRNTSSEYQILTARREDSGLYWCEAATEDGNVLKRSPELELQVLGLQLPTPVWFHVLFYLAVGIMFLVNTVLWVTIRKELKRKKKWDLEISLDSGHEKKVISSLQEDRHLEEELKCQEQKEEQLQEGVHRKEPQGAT

| binding result | Binder |
| --- | --- |
| no binding (tested: 30 µg/mL) | B1 |
| no binding (tested: 30 µg/mL) | B2 |
| no binding (tested: 30 µg/mL) | B3 |
| no binding (tested: 30 µg/mL) | B4 |
| binds | B5 |
| no binding (tested: 30 µg/mL) | B6 |
| binds | B7 |
| no binding (tested: 30 µg/mL) | B8 |
| binds | B9 |
| no binding (tested: 30 µg/mL) | B10 |
| no binding (tested: 30 µg/mL) | B11 |
| no binding (tested: 30 µg/mL) | B12 |
| no binding (tested: 30 µg/mL) | B13 |
| no binding (tested: 30 µg/mL) | B14 |

Each binder was assayed against T1, human FcγRIIB (assay: FACS on CHO cells expressing human FcγRIIB (MFI)).
Procedure: as §1

| binding result | Binder |
| --- | --- |
| no binding (tested: 30 µg/mL) | B1 |
| binds | B2 |
| binds | B3 |
| no binding (tested: 30 µg/mL) | B4 |
| binds | B5 |
| no binding (tested: 30 µg/mL) | B6 |
| binds | B7 |
| no binding (tested: 30 µg/mL) | B8 |
| binds | B9 |
| binds | B10 |
| no binding (tested: 30 µg/mL) | B11 |
| no binding (tested: 30 µg/mL) | B12 |
| no binding (tested: 30 µg/mL) | B13 |
| binds | B14 |

What follows are binders tested against T3, human FcγRIII (human, UniProt P08637 17-254) (assay: FACS on CHO cells expressing human FcγRIIIA (MFI)).
T3 construct: whole, on cells; also called FcγRIIIA; CD16a
Procedure: as §1

T3 sequence (P08637 17-254): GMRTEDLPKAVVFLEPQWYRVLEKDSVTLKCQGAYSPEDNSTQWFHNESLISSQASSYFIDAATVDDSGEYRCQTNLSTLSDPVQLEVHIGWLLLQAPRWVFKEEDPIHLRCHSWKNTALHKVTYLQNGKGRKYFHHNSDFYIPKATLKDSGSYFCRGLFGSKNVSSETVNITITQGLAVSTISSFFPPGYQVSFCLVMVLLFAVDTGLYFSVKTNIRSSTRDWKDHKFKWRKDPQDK

| binding result | Binder |
| --- | --- |
| no binding (tested: 30 µg/mL) | B1 |
| no binding (tested: 30 µg/mL) | B2 |
| no binding (tested: 30 µg/mL) | B3 |
| no binding (tested: 30 µg/mL) | B4 |
| no binding (tested: 30 µg/mL) | B5 |
| no binding (tested: 30 µg/mL) | B6 |
| no binding (tested: 30 µg/mL) | B7 |
| no binding (tested: 30 µg/mL) | B8 |
| no binding (tested: 30 µg/mL) | B9 |
| no binding (tested: 30 µg/mL) | B10 |
| no binding (tested: 30 µg/mL) | B11 |
| no binding (tested: 30 µg/mL) | B12 |
| no binding (tested: 30 µg/mL) | B13 |
| no binding (tested: 30 µg/mL) | B14 |
